Literature values, collected in patent US11807856B2, “Recombinant Pichia pastoris strain and method for producing active pediocin PA-1” (VIET NAM NATIONAL UNIVERSITY HO CHI MINH CITY, priority 2019, dated 2023).
Where two headings read alike, the source gives them in different places. Ends that are not written are not given here.

Columns and labels:
[1] = for activity after heat treatment: 100° C. for 60 minutes (1 hour); for antimicrobial activities after heat treatment: 121° C.
[2] = pH 2-8

native pediocin PA-1: class IIa bacteriocin, 4.6 kDa peptide with 44 amino acids, produced by Pediococcus acidilactici PAC1.0 (KYYGNGVTCGKHSCSVDWGKATTCIINNGAMAWATGGHQGNHKC; ends and bridges not checked; cysteine pairing not given here; UniProt P29430 19-62, looked up)
activity after heat treatment ([1]; listed as prior-art pediocin PA-1): stable
activity after heat treatment ([1]; produced by Pediococcus acidilactici PAC1.0): remain its full activities
antimicrobial activities after heat treatment ([1]; 20 minutes treatment, listed as prior-art pediocin PA-1): lost all activity
antimicrobial activities after heat treatment ([1]; 20 minutes treatment, produced by Pediococcus acidilactici PAC1.0): completely disappeared
antimicrobial activities after heat treatment ([1]; after 15 minutes): gradually reduced
time stable at pH levels of 2-8 [2]: at least 2 hours
